Results taken from article PMC8376927, “14-3-3 proteins inactivate DAPK2 by promoting its dimerization and protecting key regulatory phosphosites” (Communications Biology, 2021).
Non-standard residues stand in square brackets, D forms with d. No end group written: not given here. *: point of attachment. 5FAM = O=C1OC2(c3ccc(O)cc3Oc3cc(O)ccc32)c2ccc(C(=O)*)cc21; pT = C[C@@H](OP(=O)(O)O)[C@H](N)C(=O)O

B2: DAPK2_RNTD, full-length human DAPK2 mutant with the C terminus S367STS370 changed to R367NTD370, autophosphorylated (enzyme)
chain: MFQASMRSPNMEPFKQQKVEDFYDIGEELGSGQFAIVKKCREKSTGLEYAAKFIKKRQSRASRRGVSREEIEREVSILRQVLHHNVITLHDVYENRTDVVLILELVSGGELFDFLAQKESLSEEEATSFIKQILDGVNYLHTKKIAHFDLKPENIMLLDKNIPIPHIKLIDFGLAHEIEDGVEFKNIFGTPEFVAPEIVNYEPLGLEADMWSIGVITYILLSGASPFLGDTKQETLANITAVSYDFDEEFFSQTSELAKDFIRKLLVKETRKRLTIQEALRHPWITPVDNQQAMVRRESVVNLENFRKQYVRRRWKLSFSIVSLCNHLTRSLMKKVHLRPDEDLRNCESDTEEDIARRKALHPRRRRNTD
modifications: phosphothreonine at 369 (stoichiometrically autophosphorylated); autophosphorylated Ser318 (the peptide with Ser318 carried one or two phosphoresidues)
notes: Death-associated protein kinase 2 (DAPK2, DRP-1), human, full length; Cloned into modified pRSFDuet-1 (BamHI, NotI)
B5: Human 14-3-3γΔC (residues 1-235 lacking the C-terminal 13-residue-long flexible tail) (domain or fragment, UniProt P61981 1-235, looked up)
chain: MVDREQLVQKARLAEQAERYDDMAAAMKNVTELNEPLSNEERNLLSVAYKNVVGARRSSWRVISSIEQKTSADGNEKKIEMVRAYREKIEKELEAVCQDVLSLLDNYLIKNCSETQYESKVFYLKMKGDYYRYLAEVATGEKRATVVESSEKAYSEAHEISKEHMQPTHPIRLGLALNYSVFYYEIQNAPEQACHLAKTAFDDAIAELDTLNEDSYKDSTLIMQLLRDNLTLWTS
notes: 14-3-3 protein gamma, human, residues 1-235 (C-terminally truncated)

Assays:
[1] = biological target: B5; test: fluorescence polarisation; 14-3-3γ (160 µM and binary dilution series) incubated 1 h with 50 nM FAM-labelled peptide; 20 mM HEPES-NaOH pH 7.4, 150 mM NaCl, 0.1% Tween 20, 0.1% BSA; one-site-binding model; apparent KD; conditions: both partners purified
[2] = biological target: T1, rat calmodulin protein (Ca2+/CaM) (rat, UniProt P0DP29 1-149); test: AUC; sedimentation velocity, 50 μM mixture of DAPK2_RNTD with Ca2+/CaM (1:1 molar ratio) compared with 50 μM DAPK2_RNTD alone; 20 °C; conditions: both partners purified
T1 construct: calmodulin, rat; also called rat CaM

[3] = biological target: T2, dansyl-labeled rat calmodulin (DANS-CaM) (rat, UniProt P0DP29 1-149, dansyl label (dansyl chloride; site not stated)); test: time-resolved fluorescence intensity and anisotropy decay; 25 μM DANS-CaM, 30 μM DAPK2, with or without 100 μM 14-3-3γ; 23 °C; 20 mM HEPES-NaOH pH 7.5, 150 mM NaCl, 1 mM CaCl2, 1 mM TCEP; conditions: both partners purified
T2 construct: calmodulin, rat; Measured with 1 mM CaCl2; also called DANS-Ca^2+/CaM; dansyl-Ca^2+/CaM

[4] = biological target: the molecule itself; test: crystal structure; binary complex 14-3-3γΔC:ctDAPK2-pT369 mixed 1:1.2; hanging drop, 290 K; space group R3; 2.7 Å
[5] = biological target: B2; test: AUC; sedimentation velocity, mixtures of 6 μM DAPK2_RNTD and 0.6-60 μM 14-3-3γ; 20 °C; 50 mM HEPES-NaOH pH 7.5, 150 mM NaCl, 1 mM TCEP; conditions: both partners purified
[6] = biological target: B2; test: AUC; sedimentation velocity, 10-molar excess of DAPK2_RNTD over 14-3-3γ; 20 °C; conditions: both partners purified
[7] = biological target: B2; test: AUC; sedimentation velocity, 10-molar excess of 14-3-3γ over DAPK2_RNTD; 20 °C; conditions: both partners purified

B1: FAM-ctDAPK2-pT369 peptide (FAM-RRRSSpTS) (peptide)
peptide: 5FAM-RRRSS[pT]S
notes: source: synthetic peptide (Pepscan Presto BV)
Kd [1]: 161 ± 7 nM

B2
binding result [2]: binds
binding result [3]: binds

B3: DAPK2 WT, full-length human DAPK2, autophosphorylated (enzyme)
chain: MFQASMRSPNMEPFKQQKVEDFYDIGEELGSGQFAIVKKCREKSTGLEYAAKFIKKRQSRASRRGVSREEIEREVSILRQVLHHNVITLHDVYENRTDVVLILELVSGGELFDFLAQKESLSEEEATSFIKQILDGVNYLHTKKIAHFDLKPENIMLLDKNIPIPHIKLIDFGLAHEIEDGVEFKNIFGTPEFVAPEIVNYEPLGLEADMWSIGVITYILLSGASPFLGDTKQETLANITAVSYDFDEEFFSQTSELAKDFIRKLLVKETRKRLTIQEALRHPWITPVDNQQAMVRRESVVNLENFRKQYVRRRWKLSFSIVSLCNHLTRSLMKKVHLRPDEDLRNCESDTEEDIARRKALHPRRRSSTS
modifications: autophosphorylated at Ser318 and at two additional sites, at least, within the C-terminal 14-3-3-binding motif
notes: Death-associated protein kinase 2 (DAPK2, DRP-1), human, full length
binding result [3]: binds

B4: DAPK2_RNTD S318A (enzyme)
chain: MFQASMRSPNMEPFKQQKVEDFYDIGEELGSGQFAIVKKCREKSTGLEYAAKFIKKRQSRASRRGVSREEIEREVSILRQVLHHNVITLHDVYENRTDVVLILELVSGGELFDFLAQKESLSEEEATSFIKQILDGVNYLHTKKIAHFDLKPENIMLLDKNIPIPHIKLIDFGLAHEIEDGVEFKNIFGTPEFVAPEIVNYEPLGLEADMWSIGVITYILLSGASPFLGDTKQETLANITAVSYDFDEEFFSQTSELAKDFIRKLLVKETRKRLTIQEALRHPWITPVDNQQAMVRRESVVNLENFRKQYVRRRWKLAFSIVSLCNHLTRSLMKKVHLRPDEDLRNCESDTEEDIARRKALHPRRRRNTD
notes: Death-associated protein kinase 2 (DAPK2), human, full length, made from DAPK2_RNTD
binding result [3]: binds

B5
binding result [4]: binds

B6: Human 14-3-3γ WT (natural protein, UniProt P61981 1-247, looked up)
chain: MVDREQLVQKARLAEQAERYDDMAAAMKNVTELNEPLSNEERNLLSVAYKNVVGARRSSWRVISSIEQKTSADGNEKKIEMVRAYREKIEKELEAVCQDVLSLLDNYLIKNCSETQYESKVFYLKMKGDYYRYLAEVATGEKRATVVESSEKAYSEAHEISKEHMQPTHPIRLGLALNYSVFYYEIQNAPEQACHLAKTAFDDAIAELDTLNEDSYKDSTLIMQLLRDNLTLWTSDQQDDDGGEGNN
notes: 14-3-3 protein gamma, human, wild type; it speaks of the protein as a dimer
Kd [5]: < 100 nM
stoichiometry N [6]: 1 14-3-3γ per DAPK2 (printed 2:2)
stoichiometry N [7]: 2 14-3-3γ per DAPK2 (printed 2:1)
